Experimental data as given in article PMC2572732 (2008).
Non-standard residues stand in square brackets, D forms with d. No end group written: not given here. pY = N[C@@H](Cc1ccc(OP(=O)(O)O)cc1)C(=O)O

Key:
[1] = target: human Fes SH2-kinase unit (residues I448 to the C terminus), unphosphorylated (human, UniProt P07332-1 448-822); experiment: FP; 1 mM ATP and 5 mM MgCl2
[2] = target: isolated Fes SH2 domain, wild type (human, UniProt P07332-1 460-549); experiment: FP
[3] = target: isolated Fes SH2 domain, G463V (mutant G/V) (human, UniProt P07332-1 460-549, G463V (mutant G/V)); experiment: FP
Chain of isolated Fes SH2 domain, G463V (mutant G/V) (P07332 460-549 G463V): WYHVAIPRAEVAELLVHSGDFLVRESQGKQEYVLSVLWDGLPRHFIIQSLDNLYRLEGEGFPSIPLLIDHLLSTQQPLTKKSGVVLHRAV

[4] = target: isolated Fes SH2 domain, E469K/E472K (mutant EE/KK) (human, UniProt P07332-1 460-549, E469K | E472K); experiment: FP
Chain of isolated Fes SH2 domain, E469K/E472K (mutant EE/KK) (P07332 460-549 E469K/E472K): as the sequence (P07332 460-549 G463V) above, with V4G, E10K, E13K counted along it

Chain of human Fes SH2-kinase unit (residues I448 to the C terminus), unphosphorylated (P07332 448-822): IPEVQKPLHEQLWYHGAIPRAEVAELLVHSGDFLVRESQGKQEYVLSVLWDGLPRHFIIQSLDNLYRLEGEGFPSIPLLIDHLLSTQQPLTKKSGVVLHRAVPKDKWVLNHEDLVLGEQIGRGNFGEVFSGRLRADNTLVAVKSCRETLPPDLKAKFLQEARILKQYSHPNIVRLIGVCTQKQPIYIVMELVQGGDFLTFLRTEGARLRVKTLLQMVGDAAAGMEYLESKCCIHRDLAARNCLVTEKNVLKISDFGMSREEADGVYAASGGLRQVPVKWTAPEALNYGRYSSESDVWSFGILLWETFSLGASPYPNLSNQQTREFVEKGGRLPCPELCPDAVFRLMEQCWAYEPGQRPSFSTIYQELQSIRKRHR
Chain of isolated Fes SH2 domain, wild type (P07332 460-549): as the sequence (P07332 460-549 G463V) above, with V4G counted along it

Kd [1]: ~400 nM
Kd [2]: ~400 nM
Kd [3]: ~400 nM
Kd [4]: ~400 nM
B1: pTyr-containing peptide from ezrin (VpYEPVSY) (peptide)
peptide: V[pY]EPVSY
